Data reported in the Immune Epitope Database (IEDB).

Key:
[1] = molecular target: HLA-B*18:01; assay: IEDB peptide-MHC binding, purified MHC/direct/fluorescence; filed as Kd, often an IC50 or EC50 that approximates it; ≥ and ≤ were set here for values at or beyond the usual limits of such assays; conditions: source organism: Orthohantavirus hantanense
[2] = molecular target: HLA-B*40:01; assay: as above
[3] = molecular target: HLA-B*44:02; assay: as above
[4] = molecular target: HLA-A*01:01; assay: IEDB peptide-MHC binding, purified MHC/competitive/fluorescence; filed as Kd, often an IC50 or EC50 that approximates it; ≥ and ≤ were set here for values at or beyond the usual limits of such assays
[5] = molecular target: HLA-A*01:01; assay: IEDB peptide-MHC binding, purified MHC/direct/fluorescence; filed as Kd, often an IC50 or EC50 that approximates it; ≥ and ≤ were set here for values at or beyond the usual limits of such assays; conditions: source organism: Giardia lamblia ATCC 50803
[6] = molecular target: HLA-A*02:01; assay: as above; conditions: source organism: Giardia lamblia ATCC 50803
[7] = molecular target: HLA-A*03:01; assay: as above
[8] = molecular target: HLA-A*11:01; assay: as above
[9] = molecular target: HLA-A*26:01; assay: as above; conditions: source organism: Giardia lamblia ATCC 50803
[10] = molecular target: HLA-A*31:01; assay: as above; conditions: source organism: Giardia lamblia ATCC 50803
[11] = molecular target: HLA-A*69:01; assay: as above
[12] = molecular target: HLA-B*07:02; assay: as above; conditions: source organism: Giardia lamblia ATCC 50803
[13] = molecular target: HLA-B*08:01; assay: as above; conditions: source organism: Giardia lamblia ATCC 50803
[14] = molecular target: HLA-B*15:01; assay: as above; conditions: source organism: Giardia lamblia ATCC 50803
[15] = molecular target: HLA-B*27:05; assay: as above; conditions: source organism: Giardia lamblia ATCC 50803
[16] = molecular target: HLA-B*58:01; assay: as above
[17] = molecular target: HLA-B*15:01; assay: IEDB peptide-MHC binding, purified MHC/competitive/fluorescence; ≥ and ≤ were set here for values at or beyond the usual limits of such assays
[18] = molecular target: HLA-B*15:17; assay: IEDB peptide-MHC binding, purified MHC/direct/fluorescence; filed as Kd, often an IC50 or EC50 that approximates it; ≥ and ≤ were set here for values at or beyond the usual limits of such assays
[19] = molecular target: HLA-A*03:01; assay: IEDB peptide-MHC binding, purified MHC/competitive/fluorescence; filed as Kd, often an IC50 or EC50 that approximates it; ≥ and ≤ were set here for values at or beyond the usual limits of such assays
[20] = molecular target: HLA-A*24:03; assay: as above
[21] = molecular target: HLA-A*26:01; assay: as above; conditions: source organism: Burkholderia pseudomallei K96243
[22] = molecular target: HLA-A*31:01; assay: as above
[23] = molecular target: HLA-B*15:17; assay: as above; conditions: source organism: Burkholderia pseudomallei K96243
[24] = molecular target: HLA-B*18:01; assay: as above; conditions: source organism: Burkholderia pseudomallei K96243
[25] = molecular target: HLA-B*27:03; assay: as above; conditions: source organism: Burkholderia pseudomallei K96243
[26] = molecular target: HLA-B*39:01; assay: as above; conditions: source organism: Burkholderia pseudomallei K96243
[27] = molecular target: HLA-B*46:01; assay: as above; conditions: source organism: Burkholderia pseudomallei K96243
[28] = molecular target: HLA-B*57:01; assay: as above; conditions: source organism: Burkholderia pseudomallei K96243
[29] = molecular target: HLA-A*02:01; assay: IEDB peptide-MHC binding, purified MHC/competitive/fluorescence; ≥ and ≤ were set here for values at or beyond the usual limits of such assays
[30] = molecular target: HLA-A*24:02; assay: as above
[31] = molecular target: HLA-A*11:01; assay: as above; conditions: source organism: Zaire ebolavirus
[32] = molecular target: HLA-A*02:12; assay: IEDB peptide-MHC binding, purified MHC/direct/fluorescence; filed as Kd, often an IC50 or EC50 that approximates it; ≥ and ≤ were set here for values at or beyond the usual limits of such assays; conditions: source organism: Vibrio cholerae V52
[33] = molecular target: HLA-A*02:11; assay: as above; conditions: source organism: Bacillus cereus H3081.97
[34] = molecular target: HLA-A*02:01; assay: IEDB peptide-MHC binding, purified MHC/competitive/fluorescence; filed as Kd, often an IC50 or EC50 that approximates it; ≥ and ≤ were set here for values at or beyond the usual limits of such assays; conditions: source organism: Escherichia coli
[35] = molecular target: HLA-B*57:01; assay: IEDB peptide-MHC binding, purified MHC/direct/fluorescence; filed as Kd, often an IC50 or EC50 that approximates it; ≥ and ≤ were set here for values at or beyond the usual limits of such assays
[36] = molecular target: HLA-A*03:01; assay: IEDB peptide-MHC binding, purified MHC/competitive/fluorescence; ≥ and ≤ were set here for values at or beyond the usual limits of such assays; conditions: source organism: Zaire ebolavirus
[37] = source organism: Orthohantavirus hantanense
[38] = source organism: Giardia lamblia ATCC 50803
[39] = source organism: Zaire ebolavirus
[40] = source organism: Brucella abortus 2308
[41] = source organism: Burkholderia pseudomallei K96243
[42] = source organism: Burkholderia mallei
[43] = source organism: Escherichia coli
[44] = source organism: Marburg virus - Musoke, Kenya, 1980
[45] = source organism: Vaccinia virus Copenhagen
[46] = source organism: Yellow fever virus
[47] = source organism: Bacillus anthracis
[48] = source organism: Salmonella enterica subsp. enterica serovar Typhi
[49] = source organism: Yersinia pestis Antiqua
[50] = source organism: Camelpox virus M-96
[51] = source organism: Vaccinia virus WR

REINAHEGQ
Kd [1]: ≥ 20000 nM
Kd [2, 37]: 148 nM
Kd [3, 37]: ≥ 20000 nM

MLASIDLKY
Kd ([4]; source organism: Influenza A virus (A/swine/Finistere/127/99(H3N2))): 427 nM

EFFDTEPQL
Kd [5]: ≥ 20000 nM
Kd [6]: ≥ 20000 nM
Kd [7, 38]: ≥ 20000 nM
Kd [8, 38]: ≥ 20000 nM
Kd [9]: ≥ 20000 nM
Kd [10]: ≥ 20000 nM
Kd [11, 38]: ≥ 20000 nM
Kd [12]: ≥ 20000 nM
Kd [13]: ≥ 20000 nM
Kd [14]: ≥ 20000 nM
Kd [15]: ≥ 20000 nM
Kd [2, 38]: 2770 nM
Kd [3, 38]: ≥ 20000 nM
Kd [16, 38]: ≥ 20000 nM

RQRVIPVYQ
IC50 [17, 39]: 6370 nM

ITGLPPTEW
Kd [18, 40]: 2.3 nM
Kd [16, 40]: 24.4 nM

LMRRFRFTV
Kd [19, 41]: ≥ 20000 nM
Kd [20, 41]: ≥ 20000 nM
Kd [21]: ≥ 20000 nM
Kd [22, 41]: 262 nM
Kd [23]: ≥ 20000 nM
Kd [24]: ≥ 20000 nM
Kd [25]: ≥ 20000 nM
Kd [26]: ≥ 20000 nM
Kd [27]: ≥ 20000 nM
Kd [28]: ≥ 20000 nM

IQYPTAWQS
IC50 [29, 39]: 30600 nM
IC50 [30, 39]: 33500 nM
IC50 [17, 39]: 25700 nM

RVYRRRLAQ
Kd [7, 42]: 323 nM
Kd [8, 42]: ≥ 20000 nM
Kd ([22]; source organism: Burkholderia pseudomallei 1106a): 40.5 nM

RTAFLRFWL
Kd [18, 43]: 1.5 nM

KAVEKGKNW
Kd [18, 44]: 17.7 nM
Kd [16, 44]: 91.5 nM

KAIITPIVF
IC50 [30, 45]: 11100 nM
IC50 [17, 45]: 15700 nM

ISFQQTNAM
IC50 [29, 39]: 6390 nM
IC50 [31]: ≥ 125000 nM
IC50 [30, 39]: 9810 nM
IC50 [17, 39]: 6160 nM

KVVNRWLFR
Kd [8, 46]: 4.5 nM
Kd [22, 46]: 1.1 nM

FHKNMIKTY
IC50 ([17]; source organism: Vaccinia virus): 21800 nM

GLHATFMPK
Kd [7, 47]: 37.2 nM
Kd [8, 47]: 6.2 nM
Kd ([22]; source organism: Listeria monocytogenes EGD-e): 151 nM

ATTFARFLY
Kd [4, 48]: 19.3 nM
Kd [19, 48]: 202 nM

AQHAPDAAK
Kd [7, 42]: 2120 nM
Kd [8, 42]: 64.6 nM
Kd ([22]; source organism: Burkholderia mallei SAVP1): 172 nM

WIYDPRNQK
Kd [7, 49]: 29.4 nM
Kd [8, 49]: 375 nM
Kd [22, 49]: 107 nM

GWTETDSSF
Kd ([20]; source organism: Influenza A virus (A/parrot/Ulster/73(H7N1))): 304 nM

FLILCSVLL
Kd [32]: 7 nM
Kd ([11]; source organism: Vibrio cholerae): 4180 nM

ASDHFVETT
Kd ([4]; source organism: Escherichia coli APEC O1): ≥ 20000 nM

KFHQIEKEF
Kd ([20]; source organism: Influenza A virus (A/swine/Hong Kong/81/1978(H3N2))): 0.6 nM

RQMLHEIGR
Kd [7, 40]: 3220 nM
Kd [8, 40]: 660 nM
Kd ([22]; source organism: Paramagnetospirillum magnetotacticum MS-1): 1.17 nM

RLYNFSFLN
Kd [33]: ≤ 1 nM
Kd [7, 47]: 492 nM

WMAPSLTES
IC50 [29, 39]: 6450 nM
IC50 [17, 39]: 11400 nM

LMQSLYDWI
Kd [34]: 36.2 nM
Kd [20, 43]: 44.1 nM

KSALNDFDF
Kd [18, 50]: 29.5 nM
Kd [35, 50]: 252 nM
Kd [16, 50]: 26.8 nM

KLLQICMWF
Kd [5]: ≥ 20000 nM
Kd [6]: 3410 nM
Kd [7, 38]: ≥ 20000 nM
Kd [8, 38]: ≥ 20000 nM
Kd [9]: ≥ 20000 nM
Kd [11, 38]: ≥ 20000 nM
Kd [12]: ≥ 20000 nM
Kd [13]: ≥ 20000 nM
Kd [14]: 16600 nM
Kd [15]: ≥ 20000 nM
Kd [2, 38]: ≥ 20000 nM
Kd [3, 38]: ≥ 20000 nM
Kd [35, 38]: ≥ 20000 nM
Kd [16, 38]: 1470 nM

VSFNQNLEY
Kd ([4]; source organism: Influenza A virus (A/goose/Guangdong/1/1996(H5N1))): 25.9 nM

VIYRGTTFA
IC50 [29, 39]: 1530 nM
IC50 [36]: 4210 nM
IC50 [31]: 38000 nM
IC50 [30, 39]: 45400 nM
IC50 [17, 39]: ≥ 70900 nM

RMGVQMQRF
Kd ([20]; source organism: Influenza A virus (A/swine/Hannover/1/1981(H1N1))): 294 nM

TFAEGVVAF
IC50 [30, 39]: 213 nM
IC50 [17, 39]: 18400 nM

FLVINRLGA
IC50 [29, 51]: 795 nM
IC50 [17, 51]: ≥ 86900 nM
